Experimental data reported in patent US20090258005A1 (TRUBION PHARMACEUTICALS, published 2009).

T1: L1-CR1 (Her054P)
T1 construct: also called 1.0
T1 chain: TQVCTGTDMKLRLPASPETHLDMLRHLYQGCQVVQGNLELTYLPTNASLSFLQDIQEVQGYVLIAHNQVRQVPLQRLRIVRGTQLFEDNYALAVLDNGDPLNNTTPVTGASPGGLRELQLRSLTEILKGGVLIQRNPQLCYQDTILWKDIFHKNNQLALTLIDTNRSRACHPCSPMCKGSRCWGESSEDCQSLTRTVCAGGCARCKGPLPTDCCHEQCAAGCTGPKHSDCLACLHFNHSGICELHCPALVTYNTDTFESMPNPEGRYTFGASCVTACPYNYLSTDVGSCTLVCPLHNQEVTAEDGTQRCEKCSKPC

B1: S1R3B2_BMV_1G2 (scFv, V domains shown)
VH: QVQLVQSGAEVKKPGSSVKVSCKASGYTFTSYGISWVRQAPGQGLEWMGWISAYNGNTNYAQKLQGRVTMTTDTSTSTAYMELRSLRSDDTAVYYCARVPGVSGSYPDYYYMDVWGKGTLVTVSS
VL: DIQMTQSPSTLSASIGDRVTITCRASEGIYHWLAWYQQKPGKAPKLLIYKASSLASGAPSRFSGSGSGTDFTLTISSLQPDDFATYYCQQYSNYPLTFGGGTKLEIK
notes: scFv, on phage in the screen; also called Her2_S1R3B2_BMV_1G2
B2: S1R3A1_BMV_1F3 (scFv, V domains shown)
VH: EVQLVESGEGLVKPGGSLRLSCTASGFTFRSYSLNWVRQAPGQGLEWVSSISSTSTYIYYADSVKGRFTISRDDAKNTLYLQMNSLRAEDTAAYYCVRLGSGGGYFPDYWGRGTLVTVSS
VL: SSELTQDPAVSVALGQTVRITCQGDSLRSYYASWYQQKPGQAPVLVIYGKNNRPSGIPDRFSGSSSGNTASLTITGAQAEDEADYYCNSRDSSGNHVVFGGGTKLTVL
notes: scFv, soluble from bacterial periplasm in the screen; also called Her2_S1R3A1_BMV_1F3
B3: S1R3B1_BMV_1H5 (scFv, V domains shown)
VH: QVQLQESGGGVVQPGGSLRLSCAASGFTFSGYGMHWVRQAPGKGLEWVASVRNDGSNTYYTDSVKDRFTISRDNTKNTLYLQMNSLRAEDTAVYYCAKSRRVMYGTSYYFDYWGRGTLVTVSS
VL: B2 VL
notes: scFv, soluble from bacterial periplasm in the screen; also called Her2_S1R3B1_BMV_1H5
B4: S1R3B1_BMV_1H9 (scFv, V domains shown)
VH: QVQLQESGAGLVKPSGTLSLTCAVSGGSISSGNWWSWVRQPPGKGLEWIGEISHSGSTNYNPSLKSRVTISVDKSKNQFSLNLSSVTAADTAVYYCARVRGTVGDTRGPDYWGQGTLVTVSS
VL: B2 VL
notes: scFv, soluble from bacterial periplasm in the screen; also called Her2_S1R3B1_BMV_1H9
B5: S1R3C1_CS_1D3 (scFv, V domains shown)
VH: QVQLQESGPGLVKPSQTLSLTCGISGDSVSSNSAAWNWIRQSPTRGLEWLGRTYYRSSWYHNYAPSMNSRLTIIADTSKNQFSLQLNSVTPEDTAVYYCASGWAFDVWGRGTLVTVSS
VL: QSVLTQPPSASGSPGQSVTISCTGTSSDVGAYDFVSWYQQHPGKAPKLMIYEVNKRPSGVPDRFSGSKSGNTASLTVSGLQAEDEADYYCSSYAGSKNLLFGGGTKLTVL
notes: scFv, on phage in the screen; also called Her2_S1R3C1_CS_1D3
B6: S1R3A1_DP47_1A6 (scFv, V domains shown)
VH: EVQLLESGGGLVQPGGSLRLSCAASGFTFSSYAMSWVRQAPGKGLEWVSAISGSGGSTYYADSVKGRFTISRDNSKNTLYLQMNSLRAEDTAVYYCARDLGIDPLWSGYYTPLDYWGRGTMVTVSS
VL: HVILTQPPSASGTPGQRVTISCSGSSSNIGSNSVSWYQQLPGTAPKLLMYTNNQRPSGVPDRFSGSKSGTSASLAISGLQSEDEADYYCATWDASLNTWVFGGGTKVTVL
notes: scFv, soluble from bacterial periplasm in the screen; also called Her2_S1R3A1_DP47_1A6
B7: S1R3B1_BMV_1A1 (scFv, V domains shown)
VH: EVQLVQSGAEVKEPGASVKVSCKASGYDFSNYGFSWVRQAPGQGLEWMGWISSYNGYTNYAQRLQGRVTMTTDTSTSTAYMELRSLRSDDTAVYYCARDRGLGNWYFDLWGQGTLVTVSS
VL: QSVLTQPASVSGSPGQSITISCTGTSSDVGGYNYVSWYQQHPGKAPKLMIYEGSKRPSGVSNRFSGSKSGNTASLTISGLQAEDEADYYCSSYTTRSTRVFGGGTKLTVL
notes: scFv, soluble from bacterial periplasm in the screen; also called Her2_S1R3B1_BMV_1A1
B8: S1R3B1_BMV_1G11 (scFv, V domains shown)
VH: QVQLVQSGGGLVQPGGSLRLSCAASGFTFSTYAMSWARQAPGKGLEWVSSISGDGGRILDADSAKGRFTISRDNSKNTLYLQMNGLRVEDTALYYCARADGNYWGRGTMVTVSS
VL: B7 VL
notes: scFv, soluble from bacterial periplasm in the screen; also called Her2_S1R3B1_BMV_1G11

target: T2, EQR (Her017P); assay: ELISA, soluble scFv on EQR
T2 construct: also called HER2 EQR-Fc; HER2 EQR DIMER
Description: (§1) Various Her2-Fc proteins (e.g., Her008P, Her017P, Her018P, etc.) or a negative control murine IgG2a protein were coated overnight at 4° C. on 96-well Nunc Maxisorp at a concentration of 1 ug/ml in PBS. Alternatively, pre-blocked streptavidin-coated plates (Greiner) were coated with biotinylated Her2-Fc proteins for 1 hour at room temperature at a concentration of 1 ug/ml in block buffer (3% skim milk/1% BSA/PBS). Plates were washed three times using PBS and blocked for 1 hour at room temperature in 3% skim milk/1% BSA/PBS. Phage or peripreps were prepared as described above and were blocked for 1 hour at room temperature in an equal volume of 6% skim milk/1% BSA/PBS. Blocked plates were washed five times with PBS and 50 μl/well of blocked phage or periprep were transferred to the appropriate plates and incubated for 1 hour at room temperature. […] Plates were incubated for a further hour at room temperature and washed seven times with PBS. Signal was developed using TMB, the reaction stopped with H₂SO₄ and the absorbance read at 450 nm on an Envision plate reader (Perkin Elmer).

Binder	binding result
B1	binds
B2	binds
B3	no binding
B4	no binding
B5	binds
B6	binds
B7	binds
B8	no binding

Target: T1, L1-CR1 (Her054P)
Assay: ELISA, soluble scFv on L1-CR1
Description: as §1

Binder	binding result
B1	no binding
B2	no binding
B3	no binding
B4	no binding
B5	no binding
B6	no binding
B7	no binding
B8	no binding

target: T3, Her008P, full-length extracellular domain (ECD) of Her2 expressed with a mIgG2a Fc tail (human; murine, UniProt P04626 23-652); assay: ELISA, soluble scFv on ECD
T3 construct: also called SIIS; SIIS (Dimer); not shown: murine IgG2a Fc tail

Binder	binding result
B1	binds
B2	binds
B3	binds
B4	binds
B5	binds
B6	binds
B7	binds
B8	binds

target: T4, Full length HER2 (human, UniProt P04626 23-1255); assay: cell ELISA, phage scFv, SKBR3 cells
T4 construct: Endogenous HER2 on SKBR3, BT474, 22rv1, MDA-MB-175, MDA-MB-453 and MDA-MB-361 cells; also called HER2 on the cell surface; ErbB2

Binder	binding result
B1	binds
B5	binds

target: T5, ECD region of Her2 (human, UniProt P04626 23-652); assay: screening after three rounds of phage selection, soluble periplasmic scFv
T5 construct: extracellular domain; Generic target of the scFv screen; also called extracellular domain (ECD) of Her2 (ErbB2)

Binder	binding result
B2	binds
B3	binds
B4	binds
B6	binds
B7	binds
B8	binds

target: T5, ECD region of Her2; assay: cell ELISA, phage scFv, CHO-ECD cells
Description: 2×10⁴ CHOK1 cells/well were seeded in a 96-well tissue culture plate on Day 1 and incubated at 37° C./5% CO₂ for 2-4 days until a confluent monolayer was observed. Cells were washed five times with PBS (+ Ca/Mg ions) and blocked for 1 hour at room temperature with 3% skim milk/1% BSA/PBS (+ Ca/Mg ions). Phage or peripreps were prepared as described above and were blocked for 1 hour at room temperature in an equal volume of 6% skim milk/1% BSA/PBS (+ Ca/Mg ions). Blocked plates were washed five times with PBS (+ Ca/Mg ions) and 50 μl/well of blocked phage or periprep were transferred to the appropriate plates and incubated for 1 hour at room temperature. […] Plates were incubated for a further hour at room temperature and washed ten times with PBS (+ Ca/Mg ions). Signal was developed using TMB, the reaction stopped with H₂SO₄ and the absorbance read at 450 nm on an ENVISION plate reader (Perkin Elmer).

Binder	binding result
B1	binds
B5	binds

target: T6, Her018P, Her2 ECD with a deletion in the CR2 (Domain IV) region expressed with a mIgG2a Fc tail (human; murine, UniProt P04626 23-599); assay: ELISA, soluble scFv on Her018
T6 construct: Shares the name HER018 with the trastuzumab SMIP; also called 1.8 (Dimer); dimeric HER018; not shown: murine IgG2a Fc tail (C-terminal dimerising carrier) and any junction residues

Binder	binding result
B1	binds
B2	binds
B3	no binding
B4	no binding
B5	no binding
B6	binds
B7	no binding
B8	no binding
